The DeepSol protein solubility set

assay: soluble on expression in E. coli; label from the status in PepcDB or PDB records

Row | Sequence | soluble on expression in E. coli
1 | MSQPLTTNSVLVEEAAADGDSSAAAPPLFDYHRIDQKLLQNIVYDALVWSTLNCLLVGDKSVQRSGRVPGVGLVHLPLSLLPGPFPESHWKQGCELAPIFNELVDRVSLDGKFLQESLSRTKNADEFTSRLLDIHSKMLQINKKEDIRMGIVRSDYMIDEKTKSLLQIEMNTISTSFALIGCLMTGLHKSLLSQYGKFLGLNSNRVPANNAVDQSAEALAKAWSEYNNPRAAILVVVQVEERNMYEQHYISALLREKHHIRSIRKTLTEIDQEGKILPDGTLSVDGQAISVVYFRAGYTPKDYPSESEWRARLLMEQSSAIKCPTISYHLVGTKKIQQELAKPGVLERFVENKDHIAKLRACFAGLWSLEDSDIVKKAIENPELFVMKPQREGGGNNIYGDELRETLLKLQEAGSQEDAAYILMQRIFPATSPAILVRDGNWDTGHVISEAGIFGTYLRNKDKIIINNESGYMVRTKISSSYEGGVLPGFGVVDTVYLT | soluble
2 | MGSDKIHHHHHHMINQIYQLTKPKFINVKYQEEAIDQENHILIRPNYMAVCHADQRYYQGKRDPKILNKKLPMAMIHESCGTVISDPTGTYEVGQKVVMIPNQSPMQSDEEFYENYMTGTHFLSSGFDGFMREFVSLPKDRVVAYDAIEDTVAAITEFVSVGMHAMNRLLTLAHSKRERIAVIGDGSLAFVVANIINYTLPEAEIVVIGRHWEKLELFSFAKECYITDNIPEDLAFDHAFECCGGDGTGPAINDLIRYIRPQGTILMMGVSEYKVNLNTRDALEKGLILVGSSRSGRIDFENAIQMMEVKKFANRLKNILYLEEPVREIKDIHRVFATDLNTAFKTVFKWEV | not soluble
3 | MGSDKIHHHHHHMQLDKIIAQNIVKRAMNIIGCSVNVMDHHGIIIASGNPARLNQLHTGAVLALRQNRMVEVDENLAEKWNFDAHPGINVPIQYLGNNIGVIGISGVPEQVKPYAELVKMTAELIIEQHILLEKESWNRRYKEEFILQLVKGNLSLAEIQQQAAFFSFALDIPRVVIIIKLLHPNADSLQQLVGYLEQPQFEQDVAILSLDQIIILQPFNIFAQFGKQLKKLLPKDYSQQDYKIAIGAQLECPAGEQLHLSYRSALSTLQYGLKHYPRKTLYFFEQYRLPVLLAGIADSWQAEELLKPLKALFSEENALLFKTLQQYFLSNCDLVLTAQKLFIHPNTLRYRLAKIEQITALSFNKIEDRFSLYLSTVLI | not soluble
4 | MLILGHPLIPSARFVFIKNTDAIHSNTNNDIVCFEAHPKNLELAKYCCENSVHFSVIFLSHKIETDTFFLFNAFKPLYCIFKDIKQAILAQQHATNYLLDSKILFFMDLNDTELWEICAKSQIDGVISKDSLLLK | soluble
5 | MEWTEEIVSKGFALYVALSKKGFITSKEDEYFQWYEERGVQDFIRKVIEPTGKVMIFLDEQDGVIQMVPEVENETMSYTNDDLKKELGFKDNKEIHLFYFILFILIAELEQPYDTESADRMYLPMDELLDKMNGYIEQYERLGEEKLEELSDEYDVDVAGIVEAWGRMADFKEGATSHIRTKDNRRMYIEKTLKFLEKEKLIRIREHTNISVTNKMKNIISHYYHNVENKSKIHDLLLVTREGTVGEEEE | not soluble
6 | MHDRASQMVIFYALAKAGSFTAAAKQMGVSTSHVSKQLGALEETLNLKLVHRTTRSLILTDAGQQFFLYCETIYNAMTEASAIMDDERDEVAGILRLGLSQSFGTMHIIPAIDKLRNQYPDLQVEVRLFDHQADMLKDGLDLWVTNFEDLPEGYVAQRLADSNFVLAASPDYLIDKKVPHHPLDLVEHNCLTYQSRYRDYSNWDFSKGNESLCVKVSGNYRVDLAEAVRDATISGWGIAYLASYLLTNEFNDGKLIQLLPGWKASQKMPIYAVYPSRKHLPRKISAVIDFLREHIGQPPYWDKALMKRVKL | soluble
7 | MQAGPALMRILPISTIKGKLNEFVDAVSSTQDQITITKNGAPAAVLVGADEWESLQETLYWLAQPGIRESIAEADADIASGRTYGEDEIRAEFGVPRRPHDYKDDDDK | soluble
8 | MEENSIKIHKWLYPASWLYGAGVALRNKLFDWGKLQSKSFNVPIICIGNIAVGGTGKTPHTEYLIKLLHDEFQVAVLSRGYKRHTKGFVLSTAESDARSIGDEPYQIQSKFSDIRVAVDEDRCHGIERLLTLKEPPVEVILLDDAFQHRYVKAGLNILLTDYHRLFCDDTLMPAGRLRESAQGKNRAQIVIVTKCPPDIKPIDYNIITKRLNLFPYQQLYFSSFRYGNLRAVFPDCATVQERKLSSLQTEEQILLITGIASPDTIIRELEIHTRNIDLLAFSDHHNFSQRDLAQIKERFGKLRKGQRLIVTTEKDATRLICHQELDEGLKPFIYALPIEVEILQNQQDNFNQHIIGYVRENTRNGSLPERKDAHKSLEHHHHHH | soluble
